# B1: placental growth factor (PlGF)-2 (ligand, human, UniProt P49763-3 19-170, looked up)
# chain: LPAVPPQQWALSAGNGSSEVEVVPFQEVWGRSYCRALERLVDVVSEYPSEVEHMFSPSCVSLLRCTGCCGDENLHCVPVETANVTMQLLKIRSGDRPSYVELTFSQHVRCECRPLREKMKPERRRPKGRGKRRREKQRPTDCHLCGDAVPRR
# notes: placenta growth factor, form PlGF-2, human, bought in its mature form; source: bought: PeproTech; produced in Escherichia coli
# What was measured:
# Conditions in all cases: both partners purified
# [1] = molecular target: T1, recombinant human syndecan-1 (human, UniProt P18827 23-254); test: ELISA; plates coated with laminin peptide (10 µg/mL by the legend, 1 μg/mL by the methods); 1 μg/mL His-tagged syndecan added; detected with anti-histidine tag antibody; BSA-coated wells as control
# T1 construct: syndecan-1, human, recombinant; probably the extracellular domain; source: bought: SinoBiological
# T1 sequence (looked up): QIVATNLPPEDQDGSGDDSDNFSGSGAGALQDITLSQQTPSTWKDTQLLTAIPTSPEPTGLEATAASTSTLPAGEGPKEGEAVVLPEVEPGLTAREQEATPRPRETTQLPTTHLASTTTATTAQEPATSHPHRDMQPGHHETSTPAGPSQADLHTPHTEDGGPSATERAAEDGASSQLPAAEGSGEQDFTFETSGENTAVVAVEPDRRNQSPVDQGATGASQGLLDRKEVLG
# [2] = molecular target: T2, recombinant human syndecan-4 (human, UniProt P31431 19-145); test: as above
# T2 construct: syndecan-4, human, recombinant; probably the extracellular domain; source: bought: SinoBiological
# T2 sequence (looked up): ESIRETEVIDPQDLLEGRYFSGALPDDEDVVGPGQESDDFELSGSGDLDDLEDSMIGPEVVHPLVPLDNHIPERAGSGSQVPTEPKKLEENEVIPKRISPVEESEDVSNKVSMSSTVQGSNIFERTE
# [3] = molecular target: T3, recombinant human syndecan-2 (human, UniProt P34741 19-144); test: as above
# T3 construct: syndecan-2, human, recombinant; probably the extracellular domain; source: bought: SinoBiological
# T3 sequence (P34741 19-144): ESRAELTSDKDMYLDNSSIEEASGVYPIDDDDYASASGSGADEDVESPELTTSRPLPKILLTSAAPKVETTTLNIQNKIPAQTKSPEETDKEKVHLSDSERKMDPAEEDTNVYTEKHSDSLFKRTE
# [4] = molecular target: B1; test: ELISA; plates coated with laminin peptide (10 µg/mL by the legend, 1 μg/mL by the methods); 1 μg/mL GF added; bound GF detected with an antibody for each GF; BSA-coated wells as control
# [5] = molecular target: T4, recombinant human laminin-521 (human, UniProt O15230 36-3695; P55268 33-1798; P11047 34-1609); test: ELISA; plates coated with 50 nM GF or chemokine in PBS; 10 nM laminin isoform in PBS added; bound laminin detected with anti-LAMC1 or anti-LAMA3 polyclonal antibody; A450 signals greater than 0.1 taken as binding; BSA-coated wells as control
# T4 construct: laminin subunit alpha-5, human; chain told by the isoform's name; laminin subunit beta-2, human; laminin subunit gamma-1, human; also called laminin isoform-521; source: bought: BioLamina (recombinant human, >95% purity); copies: + +
# [6] = molecular target: T5, recombinant human laminin-511 (human, UniProt O15230 36-3695; P07942 22-1786; P11047 34-1609); test: as above
# T5 construct: laminin subunit alpha-5, human; chain told by the isoform's name; laminin subunit beta-1, human; laminin subunit gamma-1, human; source: bought: BioLamina (recombinant human, >95% purity); copies: + +
# [7] = molecular target: T6, recombinant human laminin-111 (human, UniProt P25391 18-3075; P07942 22-1786; P11047 34-1609); test: as above
# T6 construct: laminin subunit alpha-1, human; chain told by the isoform's name; laminin subunit beta-1, human; laminin subunit gamma-1, human; source: bought: BioLamina (recombinant human, >95% purity); copies: + +
# [8] = molecular target: T7, recombinant human laminin-211 (human, UniProt P24043 23-3122; P07942 22-1786; P11047 34-1609); test: as above
# T7 construct: laminin subunit alpha-2, human; chain told by the isoform's name; laminin subunit beta-1, human; laminin subunit gamma-1, human; source: bought: BioLamina (recombinant human, >95% purity); copies: + +
# FGF-2 = molecular target: T8, FGF-2 (human, UniProt P09038 143-288); test: ELISA; plates coated with laminin peptide (10 µg/mL by the legend, 1 μg/mL by the methods); 1 μg/mL GF added; bound GF detected with an antibody for each GF; BSA-coated wells as control
# T8 construct: fibroblast growth factor 2, human, bought in its mature form; source: bought: PeproTech; produced in Escherichia coli
# T8 sequence (P09038 143-288): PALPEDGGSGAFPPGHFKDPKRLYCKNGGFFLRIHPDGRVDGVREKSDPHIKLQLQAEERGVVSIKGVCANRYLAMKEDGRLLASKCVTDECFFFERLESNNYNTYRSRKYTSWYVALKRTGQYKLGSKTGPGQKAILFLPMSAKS
# [9] = molecular target: T9, platelet-derived growth factor PDGF-BB (human, UniProt P01127 82-190); test: as above
# T9 construct: platelet-derived growth factor subunit B, human, bought in its mature form; a homodimer by its name; source: bought: PeproTech; produced in Escherichia coli
# T9 sequence (P01127 82-190): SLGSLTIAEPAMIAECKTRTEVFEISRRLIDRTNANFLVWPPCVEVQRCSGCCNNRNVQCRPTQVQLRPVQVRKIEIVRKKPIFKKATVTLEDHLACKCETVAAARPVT
# [10] = molecular target: T4, recombinant human laminin-521; test: SPR; laminin-521 immobilised by amine coupling on a C1 chip (~2000 RU); GF flown at 20 μL/min in 0.01 M HEPES pH 7.4, 0.15 M NaCl, 0.005% surfactant P20; Langmuir binding kinetics
# [11] = molecular target: T6, recombinant human laminin-111; test: ELISA; plates coated with 10 μg/mL laminin isoform; 1 μg/mL GF for 60 min at RT in the absence or presence of 10 μM heparin; bound GF detected with an antibody for each GF
# [12] = molecular target: T7, recombinant human laminin-211; test: as above
# [13] = molecular target: T10, recombinant laminin LAMA3_(2928–3150) protein (human, UniProt Q16787 2928-3150); test: ELISA; plates coated with 1 μg/mL recombinant laminin LG domain; 1 μg/mL GF added; bound GF detected with an antibody for each GF; BSA-coated wells as control
# T10 construct: laminin subunit alpha-3, human, LG domain Ser2928-Cys3150 (linker domain and LG4 domain); also called laminin alpha 3 LG domain recombinant protein; source: HEK-293F, transfected, purified from culture medium (HisTrap, size-exclusion chromatography)
# T10 sequence (looked up): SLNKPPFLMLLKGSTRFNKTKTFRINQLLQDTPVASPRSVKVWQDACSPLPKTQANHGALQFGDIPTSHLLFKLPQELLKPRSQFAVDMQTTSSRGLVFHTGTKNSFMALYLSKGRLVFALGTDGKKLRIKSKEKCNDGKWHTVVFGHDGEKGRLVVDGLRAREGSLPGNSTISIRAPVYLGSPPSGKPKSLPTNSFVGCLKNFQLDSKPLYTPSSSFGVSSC
Binder,binding result [4],binding result [5],binding result [6],binding result [7],binding result [8],binding result (FGF-2),further results
"TPGLGPRGLQATARKASRRSRQPARHPACML (peptide, UniProt O15230 3300-3330, looked up, laminin subunit alpha-5, human, residues 3300-3330, from the LG3-LG4 linker; source: synthetic peptide (Genscript)) [laminin peptide LAMA5_(3300–3330)]",binds,–,–,–,–,–,binding result [1]: binds; binding result [2]: binds; binding result [3]: binds
"NT-3 (ligand, UniProt P20783 139-257, looked up, neurotrophin-3, bought in its mature form; also called neurotrophin NT-3; source: bought: PeproTech; produced in Escherichia coli) YAEHKSHRGEYSVCDSESLWVTDKSSAIDIRGHQVTVLGEIKTGNSPVKQYFYETRCKEARPVKNGCRGIDDKHWNSQCKTSQTYVRALTSENNKLVGWRWIRIDTSCVCALSRKIGRT",–,binds,binds,binds,binds,–,–
"PPFLMLLKGSTRFNKTKTFR (peptide, UniProt Q16787 2932-2951, looked up, laminin subunit alpha-3, human, residues 2932-2951, from the LG3-LG4 linker; source: synthetic peptide (Genscript)) [laminin peptide LAMA3_(2932–2951)]",–,–,–,–,–,binds,–
"FGF-10 (ligand, UniProt O15520 38-208, looked up, fibroblast growth factor 10, bought in its mature form; source: bought: PeproTech; produced in Escherichia coli) QALGQDMVSPEATNSSSSSFSSPSSAGRHVRSYNHLQGDVRWRKLFSFTKYFLKIEKNGKVSGTKKENCPYSILEITSVEIGVVAVKAINSNYYLAMNKKGKLYGSKEFNNDCKLKERIEENGYNTYASFNWQHNGRQMYVALNGKGAPRRGQKTRRKNTSAHFLPMVVHS",–,binds,binds,binds,binds,–,–
"FGF-18 (ligand, UniProt O76093 28-207, looked up, fibroblast growth factor 18, bought in its mature form; source: bought: PeproTech; produced in Escherichia coli) EENVDFRIHVENQTRARDDVSRKQLRLYQLYSRTSGKHIQVLGRRISARGEDGDKYAQLLVETDTFGSQVRIKGKETEFYLCMNRKGKLVGKPDGTSKECVFIEKVLENNYTALMSAKYSGWYVGFTKKGRPRKGPKTRENQQDVHFMKRYPKGQPELQKPFKYTTVTKRSRRIRPTHPA",–,binds,binds,binds,binds,–,–
"RLVFALGTDGKKLRIKSKEKCNDGK (peptide, UniProt Q16787 3043-3067, looked up, laminin subunit alpha-3, human, residues 3043-3067; also called laminin HBD peptide; source: synthetic peptide (Genscript)) [laminin peptide LAMA3_(3043–3067)]",binds,–,–,–,–,binds,binding result [1]: binds; binding result [2]: binds; binding result [3]: binds; binding result [9]: binds
B1,–,–,–,–,–,–,Kd [10]: 12.9 nM; binding result [11]: binds; binding result [12]: binds; binding result [13]: binds
"FGF-7 (ligand, UniProt P21781 32-194, looked up, fibroblast growth factor 7, bought in its mature form; source: bought: PeproTech; produced in Escherichia coli) CNDMTPEQMATNVNCSSPERHTRSYDYMEGGDIRVRRLFCRTQWYLRIDKRGKVKGTQEMKNNYNIMEIRTVAVGIVAIKGVESEFYLAMNKEGKLYAKKECNEDCNFKELILENHYNTYASAKWTHNGGEMFVALNQKGIPVRGKKTKKEQKTAHFLPMAIT",–,binds,binds,binds,binds,–,–
"TLPDVGLELEVR (peptide, UniProt O15230 3539-3550, looked up, laminin subunit alpha-5, human, residues 3539-3550; source: synthetic peptide (Genscript)) [laminin peptide LAMA5_(3539–3550)]",binds,–,–,–,–,binds,binding result [9]: binds
"BMP-3 (ligand, UniProt P12645 363-472, looked up, bone morphogenetic protein 3, bought in its mature form; source: bought: PeproTech; produced in Escherichia coli) QWIEPRNCARRYLKVDFADIGWSEWIISPKSFDAYYCSGACQFPMPKSLKPSNHATIQSIVRAVGVVPGIPEPCCVPEKMSSLSILFFDENKNVVLKVYPNMTVESCACR",–,binds,binds,binds,binds,–,–
"BMP-2 (ligand, UniProt P12643 283-396, looked up, bone morphogenetic protein 2, bought in its mature form; source: bought: PeproTech; produced in Escherichia coli) QAKHKQRKRLKSSCKRHPLYVDFSDVGWNDWIVAPPGYHAFYCHGECPFPLADHLNSTNHAIVQTLVNSVNSKIPKACCVPTELSAISMLYLDENEKVVLKNYQDMVVEGCGCR",–,binds,binds,binds,binds,–,–
"RQRSRPGRWHKVSVRWEKNR (peptide, UniProt O15230 3417-3436, looked up, laminin subunit alpha-5, human, residues 3417-3436; source: synthetic peptide (Genscript)) [laminin peptide LAMA5_(3417–3436)]",binds,–,–,–,–,binds,binding result [1]: binds; binding result [2]: binds; binding result [3]: binds; binding result [9]: binds

# Source: publication PMC5986797, “Laminin heparin-binding peptides bind to several growth factors and enhance diabetic wound healing” (Nature Communications, 2018)
